# Assay results: patent publication US20180057604A1 (Genentech, published 2018)
# Changes are numbered by the printed parent chain.
# T1: cyno TfR extracellular domain (analogous construct to human TfR ecd) (cynomolgus monkey, UniProt Q5RDH6 87-760 (Pongo abelii entry))
# T1 construct: also called cynoTfR ecd
# T1 chain: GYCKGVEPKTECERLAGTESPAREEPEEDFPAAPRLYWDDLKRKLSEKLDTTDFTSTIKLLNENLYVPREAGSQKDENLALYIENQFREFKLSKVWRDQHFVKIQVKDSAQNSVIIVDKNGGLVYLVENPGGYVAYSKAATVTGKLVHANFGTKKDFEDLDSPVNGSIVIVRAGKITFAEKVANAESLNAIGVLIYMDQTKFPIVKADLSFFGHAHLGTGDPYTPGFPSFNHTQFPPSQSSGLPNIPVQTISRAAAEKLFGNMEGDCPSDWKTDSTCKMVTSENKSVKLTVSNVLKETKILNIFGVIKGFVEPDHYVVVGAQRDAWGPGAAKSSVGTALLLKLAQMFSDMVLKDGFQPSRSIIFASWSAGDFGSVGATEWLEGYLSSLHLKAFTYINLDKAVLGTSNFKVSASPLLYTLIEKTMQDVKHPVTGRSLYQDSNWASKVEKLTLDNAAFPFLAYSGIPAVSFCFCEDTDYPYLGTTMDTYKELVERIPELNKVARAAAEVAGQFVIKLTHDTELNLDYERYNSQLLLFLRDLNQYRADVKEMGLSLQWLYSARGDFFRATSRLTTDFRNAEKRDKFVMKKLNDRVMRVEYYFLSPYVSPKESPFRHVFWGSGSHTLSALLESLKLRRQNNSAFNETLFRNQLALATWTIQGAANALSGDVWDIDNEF
# B1: 6270 (antibody, V domains shown)
# VH: QVQLVQSGAEVKKPGSSVKVSCKASGGTFSGYGISWVRQAPGQGLEWMGNIIPGFGTANYAQKFQGRVTITADESTSTAYMELSSLRSEDTAVYYCARSGGTKYGMLDVWGQGTMVTVSS
# VL: EIVMTQSPATLSVSPGERATLSCRASQSVSSNLAWYQQKPGQAPRLLIYGASTRATGIPARFSGSGSGTEFTLTISSLQSEDFAVYYCQQLLLWPPRTFGGGTKVEIK
# notes: anti-BACE1 IgG
# B2: 6275 (antibody, V domains shown)
# VH: B1 VH with S30R, G33A
# VL: B1 VL with L92F
# notes: anti-BACE1 IgG
# B3: 6279 (antibody, V domains shown)
# VH: B1 VH with S30R, G33A
# VL: B1 VL
# notes: anti-BACE1 IgG
# B4: 6288 (antibody, V domains shown)
# VH: QLQLQESGPGLVKPSETLSLTCTVSGGSTSSSSYYWGWIRQPPGKGLEWIGSIYRSGSTYYNPSLRSRVTISVDTSKNQFSLKLSSVTAADTAVYYCARVGHGISYFDLWGRGTLVTVSS
# VL: B1 VL with M4L, V13L, N32Y, G50D, T53N, E70D, Q79E, S80P, L91S, L93T
# notes: anti-BACE1 IgG
# B5: 6289 (antibody, V domains shown)
# VH: B4 VH with T29I, A98V
# VL: B1 VL with M4L, V13L, N32Y, G50D, T53N, E70D, Q79E, S80P, L91S, L93T
# notes: anti-BACE1 IgG
# B6: 6274 (antibody, V domains shown)
# VH: B1 VH
# VL: B1 VL with N32H, L92I
# notes: anti-BACE1 IgG
# B7: 6290 (antibody, V domains shown)
# VH: B4 VH with T29I, S52M, R55Y, Y60W, R66K, H102L, I104V
# VL: EIVLTQSPATLSLSPGERATLSCRASQSVSSYLAWYQQKPGQAPRLLIYDASKRATGIPARFSGSGSGTDFTLTISSLEPEDFAVYYCQQVYTWPPRTFGGGTKVEIK
# notes: anti-BACE1 IgG
# B8: hu7A4.v1 (antibody, V domains shown)
# VH: EVQLVQSGAEVKKPGASVKVSCKASGYTFTDYAMHWVRQAPGQGLEWMGGISTYFGRTNYNQKFKGRVTMTRDTSISTAYMELSRLRSDDTAVYYCARGLSGNYVMDYWGQGTTVTVSS
# VL: DIVMTQSPDSLAVSLGERATINCRASESVDSYGNSFMHWYQQKPGQPPKLLIYRASNLESGVPDRFSGSGSGTDFTLTISSLQAEDVAVYYCQQSNEGPPTFGQGTKLEIK
# notes: IgG
# B9: hu7A4.v4 (antibody, V domains shown)
# VH: B8 VH with A24G, R72V
# VL: B8 VL
# notes: IgG
# B10: hu7A4.v2 (antibody, V domains shown)
# VH: B8 VH with A24G
# VL: B8 VL
# notes: IgG
# B11: hu7A4.v6 (antibody, V domains shown)
# VH: B8 VH with A24G
# VL: B8 VL with V62I
# notes: IgG
# B12: hu7A4.v3 (antibody, V domains shown)
# VH: B8 VH with R72V
# VL: B8 VL
# notes: IgG
# B13: hu15G11.v2 (antibody, V domains shown)
# VH: EVQLVQSGAEVKKPGASVKVSCKASGYTFTSYWMHWVRQAPGQRLEWMGEINPTNGRTNYIEKFKSRVTITVDTSASTAYMELSSLRSEDTAVYYCARGTRAYHYWGQGTMVTVSS
# VL: DIQMTQSPSSLSASVGDRVTITCRASDNLYSNLAWYQQKPGKAPKLLLYDATNLADGVPSRFSGSGSGTDYTLTISSLQPEDFATYYCQHFWGTPLTFGQGTKVEIK
# notes: IgG; HC 48 M, 67 V, 69 I, 71 V, 73 T
# B14: hu15G11.v3 (antibody, V domains shown)
# VH: B13 VH with V72R
# VL: B13 VL with A43S, L48V
# notes: IgG; HC 48 M, 67 V, 69 I, 71 R, 73 T
# B15: hu15G11.v4 (antibody, V domains shown)
# VH: B13 VH
# VL: B13 VL with A43S, L48V
# notes: as for B13
# B16: hu7A4.v12 (antibody, V domains shown)
# VH: B8 VH with A24G, R72V
# VL: B8 VL with G72R
# notes: IgG
# B17: hu7A4.v9 (antibody, V domains shown)
# VH: B8 VH
# VL: B8 VL with G72R
# notes: IgG
# B18: hu7A4.v7 (antibody, V domains shown)
# VH: B8 VH with R72V
# VL: B8 VL with V62I
# notes: IgG
# B19: hu7A4.v14 (antibody, V domains shown)
# VH: B8 VH with A24G, R72V
# VL: B8 VL with V62I, G98A
# notes: IgG
# B20: hu7A4.v11 (antibody, V domains shown)
# VH: B8 VH with R72V
# VL: B8 VL with G72R
# notes: IgG
# B21: hu7A4.v13 (antibody, V domains shown)
# VH: B8 VH with A24G, R72V
# VL: B8 VL with G98A
# notes: IgG
# B22: hu7A4.v10 (antibody, V domains shown)
# VH: B8 VH with A24G
# VL: B8 VL with G72R
# notes: IgG
# B23: hu16F6.v1 (antibody, V domains shown)
# VH: EVQLVESGPGLVKPSETLSLTCTVSGNSITSEYAWNWIRQPPGKGLEWIGYISYSGTTSYNPSLKSRVTISVDTSKNQFSLKLSSVTAADTAVYYCARYGYGNPATRYFDVWGQGTLVTVSS
# VL: DIQMTQSPSSLSASVGDRVTITCRASKSISKYLAWYQQKPGKAPKLLLYSGSTLQSGVPSRFSGSGSGTDYTLTISSLQPEDFATYYCQQHNEYPWTFGQGTKVEIK
# notes: IgG; HC 71 V, 78 F
# B24: hu16F6.v4 (antibody, V domains shown)
# VH: B23 VH with V72R, F79L
# VL: B23 VL with A43T, P44N
# notes: IgG; HC 71 R, 78 L; also called 16F6.v4 IgG
# B25: hu16F6.v3 (antibody, V domains shown)
# VH: B23 VH
# VL: B23 VL with A43T, P44N
# notes: IgG; HC 71 V, 78 F
# B26: hu7A4.v8 (antibody, V domains shown)
# VH: B8 VH with A24G, R72V
# VL: B8 VL with V62I
# notes: IgG
# Target: BACE1 in primary mouse cortical neurons (mouse, UniProt P56818 46-501)
# Sequence (P56818 46-501): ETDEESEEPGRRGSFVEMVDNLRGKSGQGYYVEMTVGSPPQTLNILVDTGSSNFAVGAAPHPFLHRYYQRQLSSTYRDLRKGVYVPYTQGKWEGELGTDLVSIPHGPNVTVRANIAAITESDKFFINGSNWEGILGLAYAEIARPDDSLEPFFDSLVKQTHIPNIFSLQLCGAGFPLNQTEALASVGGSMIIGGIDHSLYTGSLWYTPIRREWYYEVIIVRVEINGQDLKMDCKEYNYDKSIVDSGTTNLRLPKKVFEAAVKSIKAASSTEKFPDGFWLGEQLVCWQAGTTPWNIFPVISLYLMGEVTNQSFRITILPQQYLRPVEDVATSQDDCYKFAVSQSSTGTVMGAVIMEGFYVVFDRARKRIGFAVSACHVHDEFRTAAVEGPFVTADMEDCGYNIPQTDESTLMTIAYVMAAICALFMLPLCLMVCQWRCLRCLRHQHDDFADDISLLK
# Test: cell-based or functional assay
"IC50, Abeta x-40 in mouse cortical neurons [nM]",maximal % inhibition of Abeta x-40 [%],Binder
4.48,85,B1
1.27,71,B2
6.23,71,B3
11,67,B4
5.21,74,B5
4.82,85,B6
3.17,63,B7

# Target: T2, murine BACE1 ECD
# T2 construct: analyte of the Octet assay (200 nM) and enzyme of the first short substrate assay
# T2 sequence (single chain, as listed by the source limits assumed): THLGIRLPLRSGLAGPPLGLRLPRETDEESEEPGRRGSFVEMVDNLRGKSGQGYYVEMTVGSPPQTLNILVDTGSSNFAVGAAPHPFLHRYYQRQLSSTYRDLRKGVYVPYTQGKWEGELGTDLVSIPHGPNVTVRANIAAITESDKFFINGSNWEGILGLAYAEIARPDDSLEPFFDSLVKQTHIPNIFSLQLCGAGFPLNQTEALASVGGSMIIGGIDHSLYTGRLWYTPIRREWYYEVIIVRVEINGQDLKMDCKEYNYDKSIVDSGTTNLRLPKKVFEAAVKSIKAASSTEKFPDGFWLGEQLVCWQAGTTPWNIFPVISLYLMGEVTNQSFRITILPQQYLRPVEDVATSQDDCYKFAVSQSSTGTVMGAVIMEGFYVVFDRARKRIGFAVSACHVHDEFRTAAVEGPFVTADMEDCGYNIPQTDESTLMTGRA
# Test: Octet, pH 5.0;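 further: antibodies captured on anti-human capture sensor tips, dissociation monitored in PBS with BSA buffer, kinetics fitted with a one-to-one binding model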
# Procedure: (§1) Anti-BACE1 antibodies were loaded onto anti-human capture (AHC) sensors (tips) followed by 60 seconds baseline in assay buffer. […] Tips were transferred to assay buffer for 5 minutes, 30 minutes, or 120 minutes depending on the off-rate, for off-rate measurement. Assay buffer was either PBS+0.1% BSA, pH 7.5; or PBS+0.1% BSA, pH 5.0. Kinetics were analyzed using a 1:1 binding model.
row,Kd [nM],Binder
1,< 0.41,B1
2,< 0.37,B2
3,< 0.43,B3
4,0.28,B4
5,0.38,B5
6,0.76,B6
7,< 0.27,B7

# Target: T3, human BACE1 ECD
# T3 construct: analyte of the Octet assay (200 nM) and enzyme of the first short substrate assay; also called human BACE1 extracellular domain
# T3 sequence (single chain, as listed by the source limits assumed): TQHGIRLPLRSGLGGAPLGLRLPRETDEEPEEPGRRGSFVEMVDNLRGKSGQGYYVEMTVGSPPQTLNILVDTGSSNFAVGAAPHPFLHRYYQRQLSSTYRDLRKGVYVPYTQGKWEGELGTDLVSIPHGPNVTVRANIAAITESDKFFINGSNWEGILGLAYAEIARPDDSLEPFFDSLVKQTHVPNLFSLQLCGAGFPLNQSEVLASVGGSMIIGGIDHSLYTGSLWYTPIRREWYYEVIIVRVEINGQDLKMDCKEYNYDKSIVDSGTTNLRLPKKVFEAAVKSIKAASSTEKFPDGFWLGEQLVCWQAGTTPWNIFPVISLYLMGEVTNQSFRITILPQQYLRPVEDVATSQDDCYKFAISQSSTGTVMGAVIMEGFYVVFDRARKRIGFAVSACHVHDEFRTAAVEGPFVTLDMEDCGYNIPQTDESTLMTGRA
# Test: Octet, pH 5.0;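 further: antibodies captured on anti-human capture sensor tips, dissociation monitored in PBS with BSA buffer, kinetics fitted with a one-to-one binding model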
# Procedure: as §1
row,Kd [nM],Binder
1,< 0.29,B1
2,< 0.34,B2
3,< 0.36,B3
4,< 0.21,B4
5,0.39,B5
6,0.53,B6
7,< 0.23,B7

# Target: T1, cyno TfR extracellular domain …
# Test: SPR, IgG;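 further: His-tagged TfR captured via immobilized anti-His antibody on a CM5 chip, antibody injected in 3-fold dilution series by single cycle kinetics, 1:1 Langmuir or steady-state fit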
# Procedure: (§2) Antibody affinities were measured using surface plasmon resonance (“SPR”) (Biacore™, GE Healthcare). Anti-His antibody (Qiagen) was coupled onto four different flow cells of a BIACORE™ CM5 sensor chip (Biacore, Inc., Piscataway, N.J.) at between 6000 and 8000 RU. Immobilization was achieved by random coupling through amino groups using a protocol provided by the manufacturer. 10×HBS-P (Biacore, Inc., Piscataway, N.J.) was diluted in water and served as the dilution and running buffer. Purified human or cyno TfR was captured, followed by a 3-fold dilution series of IgG or Fab that was injected at a flow rate of 30 ml/min using the single cycle kinetics method. Affinity constants were determined using a simple 1:1 Langmuir binding model or using a steady state model when kₒₙ or koff was beyond the detection limit. The equilibrium dissociation constant (KD) was calculated as the ratio of association rate constant (kₒₙ) and dissociation rate constant (koff).
# (§3) In both cases, the SPR experiments were performed as described above.
row,Kd [nM],Binder
1,1.67,B8
2,3.83,B9
3,1.22,B10
4,1.06,B11
5,2.9,B12
6,17.6,B13
7,5.34,B14
8,7.04,B15

# Target: T4, human TfR extracellular domain with N-terminal His tag (human, UniProt P02786 89-760)
# T4 construct: Biotinylated in some assays; also called huTfR; HuTfR
# T4 sequence (P02786 89-760 G142S): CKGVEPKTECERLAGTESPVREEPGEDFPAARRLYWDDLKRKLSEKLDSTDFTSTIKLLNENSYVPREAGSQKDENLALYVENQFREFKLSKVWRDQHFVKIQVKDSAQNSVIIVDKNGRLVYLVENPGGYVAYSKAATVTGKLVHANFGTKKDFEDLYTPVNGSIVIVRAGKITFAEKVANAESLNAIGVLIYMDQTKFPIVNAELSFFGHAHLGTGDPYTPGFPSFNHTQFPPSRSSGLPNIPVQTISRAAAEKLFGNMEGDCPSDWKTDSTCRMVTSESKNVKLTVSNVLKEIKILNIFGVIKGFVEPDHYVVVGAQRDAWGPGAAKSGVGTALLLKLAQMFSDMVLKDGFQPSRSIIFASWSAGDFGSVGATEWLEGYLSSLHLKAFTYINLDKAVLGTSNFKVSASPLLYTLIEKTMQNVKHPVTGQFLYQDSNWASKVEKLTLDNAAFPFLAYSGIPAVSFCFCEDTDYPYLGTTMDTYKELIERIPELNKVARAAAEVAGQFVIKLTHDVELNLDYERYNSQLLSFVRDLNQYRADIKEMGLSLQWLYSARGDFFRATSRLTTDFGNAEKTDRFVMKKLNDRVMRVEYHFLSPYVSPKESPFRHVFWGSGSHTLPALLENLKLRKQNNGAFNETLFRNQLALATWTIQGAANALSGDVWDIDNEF
# Test: SPR, IgG;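 further: His-tagged TfR captured via immobilized anti-His antibody on a CM5 chip, antibody injected in 3-fold dilution series by single cycle kinetics, 1:1 Langmuir or steady-state fit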
# Procedure: as §2, §3
row,Kd [nM],Binder
1,0.279,B8
2,0.612,B9
3,0.232,B10
4,0.26,B11
5,0.543,B12
6,9.35,B13
7,4.12,B14
8,3.89,B15

# Target: T2, murine BACE1 ECD
# Test: Octet, pH 7.5;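 further: antibodies captured on anti-human capture sensor tips, dissociation monitored in PBS with BSA, Kd obtained from kinetic fit to a one-to-one binding model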
# Procedure: as §1
row,Kd [nM],Binder
1,< 0.4,B1
2,< 0.49,B2
3,< 0.46,B3
4,< 0.23,B4
5,0.28,B5
6,< 0.37,B6
7,< 0.27,B7

# Target: T3, human BACE1 ECD
# Test: Octet, pH 7.5;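 further: antibodies captured on anti-human capture sensor tips, dissociation monitored in PBS with BSA, Kd obtained from kinetic fit to a one-to-one binding model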
# Procedure: as §1
row,Kd [nM],Binder
1,< 0.29,B1
2,< 0.48,B2
3,< 0.45,B3
4,< 0.21,B4
5,0.37,B5
6,< 0.37,B6
7,< 0.26,B7

# Target: T5, human BACE1 (R&D Systems) (human, UniProt P56817)
# T5 construct: recombinant, commercial (R&D Systems)
# T5 sequence (P56817 22-457 limits assumed): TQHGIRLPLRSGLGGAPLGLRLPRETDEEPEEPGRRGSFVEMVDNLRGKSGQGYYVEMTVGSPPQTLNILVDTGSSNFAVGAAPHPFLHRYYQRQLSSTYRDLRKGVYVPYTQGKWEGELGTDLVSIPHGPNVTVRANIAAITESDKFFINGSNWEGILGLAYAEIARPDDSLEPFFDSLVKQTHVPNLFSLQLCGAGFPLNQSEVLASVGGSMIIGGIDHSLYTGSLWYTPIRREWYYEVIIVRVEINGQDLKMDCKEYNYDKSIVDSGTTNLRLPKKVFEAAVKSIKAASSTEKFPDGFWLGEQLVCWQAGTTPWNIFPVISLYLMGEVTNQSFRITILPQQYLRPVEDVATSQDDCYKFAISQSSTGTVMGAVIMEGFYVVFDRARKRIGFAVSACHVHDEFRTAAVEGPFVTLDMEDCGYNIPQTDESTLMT
# Test: SPR (Biacore)
# Procedure: Binding affinities of certain anti-BACE1 IgGs were measured by surface plasmon resonance (SRP) using a BIAcore™-T100 instrument. […] Association rates (kon) and dissociation rates (koff) were calculated using a simple one-to-one Langmuir binding model (BIAcore Evaluation Software version 3.2). The equilibrium dissociation constant (KD) was calculated as the ratio koff/kon.
row,Kd [nM],Binder
1,4.64,B1
2,2.68,B2
3,2.11,B3
4,4.79,B4
5,7.37,B5
6,4.18,B6
7,3.19,B7

# Target: T1, cyno TfR extracellular domain …
# Test: SPR, IgG;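 further: His-tagged TfR captured via immobilized anti-His antibody on a CM5 chip, antibody injected in 3-fold dilution series by single cycle kinetics, 1:1 Langmuir or steady-state fit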
# Remark: another data set of the same source
# Procedure: as §2, §3
row,Kd [nM],Binder
1,2.09,B16
2,0.428,B17
3,1.18,B18
4,15.7,B19
5,0.943,B20
6,11.4,B21
7,0.505,B22
8,199,B23
9,11,B24
10,34.5,B25

# Target: T4, human TfR extracellular domain with …
# Test: SPR, IgG;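 further: His-tagged TfR captured via immobilized anti-His antibody on a CM5 chip, antibody injected in 3-fold dilution series by single cycle kinetics, 1:1 Langmuir or steady-state fit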
# Remark: another data set of the same source
# Procedure: as §2, §3
row,Kd [nM],Binder
1,0.2,B16
2,0.119,B17
3,0.515,B18
4,1.29,B26
5,1.19,B19
6,0.156,B20
7,1.36,B21
8,0.143,B22
9,18.7,B23
10,0.884,B24
11,4.11,B25
